Biological target: GST-BRCA1 (tandem BRCT) M1775R (UniProt P38398)
Assay: pull-down

B1: His-GIV-CT (aa 1660-1870) (domain or fragment)
chain: SETLESRHHKIKTGSPGSEVVTLQQFLEESNKLTSVQIKSSSQENLLDEVMKSLSVSSDFLGKDKPVSCGLARSVSGKTPGDFYDRRTTKPEFLRPGPRKTEDTYFISSAGKPTPGTQGKIKLVKESSLSRQSKDSNPYATLPRASSVISTAEGTTRRTSIHDFLTKDSRLPISVDSPPAAADSNTTAASNVDKVQESRNSKSRSREQQSS
With B1 the fold change of binding against BRCA1 (tandem BRCT) WT was 3 to 5 fold.

— article doi:10.1101/2021.07.21.452842
